In article PMC3228830, “Targeted Proteolysis of Plectin Isoform 1a Accounts for Hemidesmosome Dysfunction in Mice Mimicking the Dominant Skin Blistering Disease EBS-Ogna” (PLoS Genetics, 2011):

Target: the molecule itself
Assay: SEC-MALS; Superose 6 10/300 GL column, 0.5 ml/min, protein 2 mg/ml, load 75 ul

B1: His-tagged wild-type plectin rod domain (pNV10) (domain or fragment)
chain: IKFISETLRRMEEEERLAEQQRAEERERLAEVEAALEKQRQLAEAHAQAKAQAELEAQELQRRMQEEVARREEAAVDAQQQKRSIQEELQHLRQSSEAEIQAKAQQVEAAERSRMRIEEEIRVVRLQLETTERQRGGAEGELQALRARAEEAEAQKRQAQEEAERLRRQVQDESQRKRQAEAELALRVKAEAEAAREKQRALQALDELRLQAEEAERRLRQAEAERARQVQVALETAQRSAEVELQSKRASFAEKTAQLERTLQEEHVTVAQLREEAERRAQQQAEAERAREEAERELERWQLKANEALRLRLQAEEVAQQKSLAQADAEKQKEEAEREARRRGKAEEQAVRQRELAEQELEKQRQLAEGTAQQRLAAEQELIRLRAETEQGEQQRQLLEEELARLQHEATAATQKRQELEAELAKVRAEMEVLLASKARAEEESRSTSEKSKQRLEAEAGRFRELAEEAARLRALAEEAKRQRQLAEEDAARQRAEAERVLTEKLAAISEATRLKTEAEIALKEKEAENERLRRLAEDEAFQRRRLEEQAALHKADIEERLAQLRKASESELERQKGLVEDTLRQRRQVEEEIMALKVSFEKAAAGKAELELELGRIRSNAEDTMRSKEQAELEAARQRQLAAEEEQRRREAEERVQRSLAAEEEAARQRKVALEEVERLKAKVEEARRLRERAEQESARQLQLAQEAAQKRLQAEEKAHAFVVQQREEELQQTLQQEQNMLDRLRSEAEAARRAAEEAEEAREQAEREAAQSRKQVEEAERLKQSAEEQAQAQAQAQAAAEKLRKEAEQEAARRAQAEQAALKQKQAADAEMEKHKKFAEQTLRQKAQVEQELTTLRLQLEETDHQKSILDEELQRLKAEVTEAARQRSQVEEELFSVRVQMEELGKLKARIEAENRALILRDKDNTQRFLEEEAEKMKQVAEEAARLSVAAQEAARLRQLAEEDLAQQRALAEKMLKEKMQAVQEATRLKAEAELLQQQKELAQEQARRLQEDKEQMAQQLVEETQGFQRTLEAERQRQLEMSAEAERLKLRMAEMSRAQARAEEDAQRFRKQAEEIGEKLHRTELATQEKVTLVQTLEIQRQQSDHDAERLREAIAELEREKEKLKQEAKLLQLKSEEMQTVQQEQILQETQALQKSFLSEKDSLLQRERFIEQEKAKLEQLFQDEVAKAKQLREEQQRQQQQMEQEKQELMASMEEARRRQREAEEGVRRKQEELQHLEQQRQQQEKLLAEENQRLRERLQRLEEEHRAALAHSEIATT
stoichiometry N: 2
